The values below come from patent WO2001004159A1.

The target in assay [1] is hPF4/heparin complex (human) (UniProt P02776). Kind of assay: cell-based or functional assay.
Assay [2] concerns the target platelet Fc receptor Fc-gamma RIIA (human) (UniProt P12318). Briefly: cell-based or functional assay.
The target of assay [3] is hPF4/heparin complex (human) (UniProt P02776). Kind of assay: ELISA, wells coated with hPF4/heparin complex. (In an ELISA, binding on a coated surface is turned into a signal by an enzyme label.)
For assay [4] the target is unchanged. Briefly: ELISA, wells coated with hPF4 with or without heparin.
The target is the same in assay [5]. Briefly: ELISA (A405), KKO below 0.14 micrograms per milliliter.

Sequence of UniProt P02776 (P02776 32-101, one chain of several): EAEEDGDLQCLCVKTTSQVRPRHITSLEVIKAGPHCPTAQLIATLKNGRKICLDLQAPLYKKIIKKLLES
Sequence of UniProt P12318 (P12318 34-317, form in doubt): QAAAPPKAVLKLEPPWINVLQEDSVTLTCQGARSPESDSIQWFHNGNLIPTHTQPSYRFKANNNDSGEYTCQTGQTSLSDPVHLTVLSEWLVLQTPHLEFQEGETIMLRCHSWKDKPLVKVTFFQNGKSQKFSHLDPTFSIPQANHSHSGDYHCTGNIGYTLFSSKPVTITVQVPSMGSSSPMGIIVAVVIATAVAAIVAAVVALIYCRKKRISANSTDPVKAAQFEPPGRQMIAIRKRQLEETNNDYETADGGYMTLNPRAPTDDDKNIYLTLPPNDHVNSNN

As a reminder, the EC50 is the concentration at which the effect is half-maximal. Read a low EC50 as higher potency in that assay. The substance murine monoclonal antibody KKO returned a KKO concentration required to initiate 14C-serotonin release (micrograms per milliliter) in assay [1] of more than 180. Also, the 14C-serotonin release induced by KKO in the presence of the FcγRIIA-specific mAb IV.3 in assay [2] is less than 5 % release. In addition, in assay [3], the EC50 is 0.036 µg/mL. In assay [4], the A405 ratio to hPF4/heparin complex versus hPF4 alone was more than 30. The ratio of binding to PF4/heparin complex vs. binding to PF4 alone in assay [5] was more than 400.
